According to publication PMC7201283, “Crystal structure of the NS3-like helicase from Alongshan virus” (IUCrJ, 2020):

Tested on: O=c1ccn([C@@H]2O[C@H](COP(=O)(O)OP(=O)(O)OP(=O)(O)O)[C@@H](O)[C@H]2O)c(=O)[nH]1
Experiment: purified protein
Settings: 20 mM Tris-HCl pH 8.0, 5 mM DTT, 10 mM MgCl2, 28°C, 16 nM enzyme, no RNA

## ALSV NS3-Hel (Alongshan virus)
  Km: 185 ± 19 µM
  kcat: 0.85 ± 0.02 s⁻¹
